The labels stand for the following.
B1: TPR 5TU (parent)
chain: GGAUCUUCUCGAUCUAACAAAAAAGACAAAUCUGCCACAAAGCUUGAGAGCAUCUUCGGAUGCAGAGGCGGCAGCCUUCGGUGGCGCGAUAGCGCCAACGUUCUCAACUAUGACACGCAAAACGCGUGCUCCGUUGAAUGGAGUUUAUCAUG

Fewer inactive variants are shown than the library holds. Where only a bound is given, the exact number is not on record here.

Variants of B1 are the subject of this series. The series can be described thus: polymerase ribozyme fitness, log enrichment relative to wild type (log ratio); higher = more active; in vitro selection for triplet polymerase activity. The essentials:
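PCR was used to build mutant libraries for each subunit of a heterodimeric triplet polymerase ribozyme, which were then transcribed. A single in vitro selection round, in triplicate, used a frozen incubation at −7 °C and recovered extended constructs by gel excision, streptavidin beads and RT-PCR. Fitness is the logarithm of genotype enrichment relative to wild-type enrichment, averaged over replicates with inverse-variance weights. The logarithm is base 2, and after Illumina sequencing only genotypes with ≥10 input reads and ≥1 read per output were kept.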
Regarding G25C U31C C32G U55A C75G C76U C79A A115G A120C C129A, the “polymerase ribozyme fitness (log ratio)” value was no more than -4.2. As to A24C G34A C87A G126U, the “polymerase ribozyme fitness (log ratio)” value is -4.18.

Take A24G U53A U61A G84C C125U: the “polymerase ribozyme fitness (log ratio)” value is no more than -4.2.

As to A24U C35A A52U G84A G136A, the “polymerase ribozyme fitness (log ratio)” value is no more than -4.2. For A24U C51U G59C G83A G84U C131U, the “polymerase ribozyme fitness (log ratio)” value was -3.74. On to A24U A30G A64G C87G A122U C125U C149U, for which the “polymerase ribozyme fitness (log ratio)” value is no more than -4.2. Under A24U C38G C57G G83C A91U C105A C149A stands no more than -4.2.

For the variant G25C U56G G84A A89G U130C, the “polymerase ribozyme fitness (log ratio)” value is -2.97. In the case of A24C U56A G68A G141A, the “polymerase ribozyme fitness (log ratio)” value is no more than -4.2. Turning to G25C U33A C69G G71A, the “polymerase ribozyme fitness (log ratio)” value was no more than -4.2. With G25C A97G, the “polymerase ribozyme fitness (log ratio)” value is -2.53.

Turning to A24C C85A G143C U146A, the “polymerase ribozyme fitness (log ratio)” value was no more than -4.2. In the case of A24U U53A C57A C95A C123G, the “polymerase ribozyme fitness (log ratio)” value is 0.167. With A23U U55A G128U the figure was no more than -4.2; with A23U U77C C87U, no more than -4.2.

Turning to A24U G42C G84A C93U G94C C99A A122G, the “polymerase ribozyme fitness (log ratio)” value is no more than -4.2.

As to A24G G94C, the “polymerase ribozyme fitness (log ratio)” value was -3.21.

Regarding A24G A52G U55A C85U A150C, the “polymerase ribozyme fitness (log ratio)” value is no more than -4.2. In the case of G25C G83U, the “polymerase ribozyme fitness (log ratio)” value was -2.85. With A24U C96U G117A G133A U145A, the “polymerase ribozyme fitness (log ratio)” value was no more than -4.2. G25U A39G U61A U77A C87U G141A U151A: the “polymerase ribozyme fitness (log ratio)” value was no more than -4.2. On to A24U A73U C87A A89U, for which the “polymerase ribozyme fitness (log ratio)” value was no more than -4.2.

As for G25A C54U C96U A150U, the “polymerase ribozyme fitness (log ratio)” value is -0.00287.

For A24C U55A A73U G84U U102A A110U A119C, the “polymerase ribozyme fitness (log ratio)” value is no more than -4.2. For A24U G80U, the “polymerase ribozyme fitness (log ratio)” value is -0.195. Take A24U G80C: the “polymerase ribozyme fitness (log ratio)” value is -4.14. Under A24G C85A U146C stands no more than -4.2; under A24G G25C A49U G84A U102G, no more than -4.2; under A24U U135C, -2.21. On to A24C C93U C114U A119G, for which the “polymerase ribozyme fitness (log ratio)” value is no more than -4.2. For the variant A24U A41G C69A C99G, the “polymerase ribozyme fitness (log ratio)” value is -2.54. Consider A24U C93A G112A C114U C116G A119G, for which the “polymerase ribozyme fitness (log ratio)” value is no more than -4.2. Turning to A24U U53A G80A C85U A142C, the “polymerase ribozyme fitness (log ratio)” value was no more than -4.2. Turning to A24U A28G C36U G62A U78G G83A A91G G128C, the “polymerase ribozyme fitness (log ratio)” value is -3.66. As for G25A A49G C96G, the “polymerase ribozyme fitness (log ratio)” value is -3.91. Consider A24C A37G G48C C63U U78G G88C U144G, for which the “polymerase ribozyme fitness (log ratio)” value is no more than -4.2.

For the variant A24C C27G G94A A106G C108U, the “polymerase ribozyme fitness (log ratio)” value is -3.93.

In the case of A24U C35A C87A A91C A150G, the “polymerase ribozyme fitness (log ratio)” value was no more than -4.2.

Consider A24U A26G A64C G84U A97U A122C, for which the “polymerase ribozyme fitness (log ratio)” value is no more than -4.2.

As for A24U A98U C99U U127G, the “polymerase ribozyme fitness (log ratio)” value is -3.94. With G25C A66G A106C the figure was no more than -4.2; with A24G C54U G67A G141A A150C, no more than -4.2; with A24U C131U, 2.4.

A24C A73U C79U G88U G126A: the “polymerase ribozyme fitness (log ratio)” value was no more than -4.2. For the variant A24U A30C G140A, the “polymerase ribozyme fitness (log ratio)” value is -3.94. Turning to A24C C54G C76U U78A C105A A147C, the “polymerase ribozyme fitness (log ratio)” value was no more than -4.2. Turning to A24U U56A U148A, the “polymerase ribozyme fitness (log ratio)” value was -3.8. G25C A52C G58C G59C A138U: the “polymerase ribozyme fitness (log ratio)” value was no more than -4.2. With A24C A30C A41U A66U U82C G86U G94U C116A, the “polymerase ribozyme fitness (log ratio)” value was no more than -4.2.

Turning to G25C A119C, the “polymerase ribozyme fitness (log ratio)” value was -2.68. A24U U31A A37U G143C: the “polymerase ribozyme fitness (log ratio)” value is no more than -4.2. Under A24C G67C G92U C99U U109G A110U stands no more than -4.2. On to A24U C125A, for which the “polymerase ribozyme fitness (log ratio)” value was -0.572.

As to A24U C93U A142C, the “polymerase ribozyme fitness (log ratio)” value is -2.21. For the variant A24G C96G A137U, the “polymerase ribozyme fitness (log ratio)” value was no more than -4.2. Turning to A24U A52G C69G G70C G88A, the “polymerase ribozyme fitness (log ratio)” value was no more than -4.2. In the case of A24G A26C A29C C79A C93U A115G G117A U144C A150C, the “polymerase ribozyme fitness (log ratio)” value is no more than -4.2. Take A24U A52U C85U: the “polymerase ribozyme fitness (log ratio)” value is -1.43.

Take A24C A29G C51U C95G C96U C114A U146C: the “polymerase ribozyme fitness (log ratio)” value was no more than -4.2. Turning to A24G C125G, the “polymerase ribozyme fitness (log ratio)” value was -3.52.

As for A24U G58A C79G A91U C118A G141C, the “polymerase ribozyme fitness (log ratio)” value is no more than -4.2. In the case of A24U A26C C27G C36G G81A A98G G136U U139G A142C, the “polymerase ribozyme fitness (log ratio)” value is no more than -4.2. On to G25C G46C C85G C87U G124C C125U U146C, for which the “polymerase ribozyme fitness (log ratio)” value is no more than -4.2. As for G25C A39C C76A C79U C87A A110U C114U, the “polymerase ribozyme fitness (log ratio)” value is no more than -4.2. A24U A40C A98U: the “polymerase ribozyme fitness (log ratio)” value came to 0.235. As to A24U A28C U33A G59A G140U U144G U146G, the “polymerase ribozyme fitness (log ratio)” value was no more than -4.2.

In the case of G25U A39U U53A C76G U145A, the “polymerase ribozyme fitness (log ratio)” value was no more than -4.2. As for G25C A64C C96U, the “polymerase ribozyme fitness (log ratio)” value was no more than -4.2. A24U C38A G50U U55A U61G G68C G84U G141A U151G: the “polymerase ribozyme fitness (log ratio)” value is no more than -4.2.

As to A24G C69A A91U A138U G143U, the “polymerase ribozyme fitness (log ratio)” value is no more than -4.2.

With A24C C27G U33G C38U A47U U82A G128U, the “polymerase ribozyme fitness (log ratio)” value is no more than -4.2. As for A24G G59C, the “polymerase ribozyme fitness (log ratio)” value was -3.7.

Consider A24C U53A U55A A98U G126A C149G, for which the “polymerase ribozyme fitness (log ratio)” value was no more than -4.2. With A24U A41U G86U the figure was -3.62. With G25C C57A C87U A97G the figure was -3.23. Take A24U U55A C87U G92U: the “polymerase ribozyme fitness (log ratio)” value is -3.1. As for A24G A37U A115G U130C U135A A150U, the “polymerase ribozyme fitness (log ratio)” value was no more than -4.2. As for A24C A47G C79U G94C C125U, the “polymerase ribozyme fitness (log ratio)” value was no more than -4.2. With G25A A37G C54A C87G, the “polymerase ribozyme fitness (log ratio)” value is no more than -4.2. With A24U G68A the figure was -3.78; with A24G C35A G58A C93G C99A, no more than -4.2. With G25C A49C C93G, the “polymerase ribozyme fitness (log ratio)” value was no more than -4.2. G25C C75A U104A A119U U134G U135A: the “polymerase ribozyme fitness (log ratio)” value was no more than -4.2.

The values are drawn from the RNAGym collection of RNA variant scans (doi:10.1073/pnas.2313332121).
